Source: US20250099534A1 (TECHNION RESEARCH AND DEVELOPMENT FOUNDATION, published 2025)
Starred links: 1 amine or outer side, 2 acyl side, 3 side chain; linkers in the order of their positions; H or OH if unused. Positions of bridges follow the written chain, without caps; N, C: chain ends. mBz = 3-(methylene)benzoyl on the N-terminal amine, O=C(c1cccc(C[*:3])c1)[*:2]

B1: 3 (peptide)
peptide: mBz-LCIWIGSSKNPYILCG-NH2
modifications: thioether N-15
SMILES: CC[C@H](C)[C@@H]1NC(=O)[C@H](Cc2c[nH]c3ccccc23)NC(=O)[C@H]([C@@H](C)CC)NC(=O)[C@H](CS)NC(=O)[C@H](CC(C)C)NC(=O)c2cccc(c2)CSC[C@@H](C(=O)NCC(N)=O)NC(=O)[C@H](CC(C)C)NC(=O)[C@H]([C@@H](C)CC)NC(=O)[C@H](Cc2ccc(O)cc2)NC(=O)[C@@H]2CCCN2C(=O)[C@H](CC(N)=O)NC(=O)[C@H](CCCCN)NC(=O)[C@H](CO)NC(=O)[C@H](CO)NC(=O)CNC1=O
notes: also called CP1-L2C; cyclic peptide 3
B2: 5 (peptide)
peptide: mBz-LLICIGSSKNPYILCG-NH2
modifications: thioether N-15
SMILES: CC[C@H](C)[C@@H]1NC(=O)[C@H](CS)NC(=O)[C@H]([C@@H](C)CC)NC(=O)[C@H](CC(C)C)NC(=O)[C@H](CC(C)C)NC(=O)c2cccc(c2)CSC[C@@H](C(=O)NCC(N)=O)NC(=O)[C@H](CC(C)C)NC(=O)[C@H]([C@@H](C)CC)NC(=O)[C@H](Cc2ccc(O)cc2)NC(=O)[C@@H]2CCCN2C(=O)[C@H](CC(N)=O)NC(=O)[C@H](CCCCN)NC(=O)[C@H](CO)NC(=O)[C@H](CO)NC(=O)CNC1=O
notes: also called CP1-W4C; cyclic peptide 5
B3: 6 (peptide)
peptide: mBz-LLIWCGSSKNPYILCG-NH2
modifications: thioether N-15
SMILES: CC[C@H](C)[C@@H]1NC(=O)[C@H](CC(C)C)NC(=O)[C@H](CC(C)C)NC(=O)c2cccc(c2)CSC[C@@H](C(=O)NCC(N)=O)NC(=O)[C@H](CC(C)C)NC(=O)[C@H]([C@@H](C)CC)NC(=O)[C@H](Cc2ccc(O)cc2)NC(=O)[C@@H]2CCCN2C(=O)[C@H](CC(N)=O)NC(=O)[C@H](CCCCN)NC(=O)[C@H](CO)NC(=O)[C@H](CO)NC(=O)CNC(=O)[C@H](CS)NC(=O)[C@H](Cc2c[nH]c3ccccc23)NC1=O
notes: also called CP1-I5C; cyclic peptide 6
B4: 8 (peptide)
peptide: mBz-LLIWIGCSKNPYILCG-NH2
modifications: thioether N-15
SMILES: CC[C@H](C)[C@@H]1NC(=O)[C@H](Cc2c[nH]c3ccccc23)NC(=O)[C@H]([C@@H](C)CC)NC(=O)[C@H](CC(C)C)NC(=O)[C@H](CC(C)C)NC(=O)c2cccc(c2)CSC[C@@H](C(=O)NCC(N)=O)NC(=O)[C@H](CC(C)C)NC(=O)[C@H]([C@@H](C)CC)NC(=O)[C@H](Cc2ccc(O)cc2)NC(=O)[C@@H]2CCCN2C(=O)[C@H](CC(N)=O)NC(=O)[C@H](CCCCN)NC(=O)[C@H](CO)NC(=O)[C@H](CS)NC(=O)CNC1=O
notes: also called CP1-S7C; cyclic peptide 8
B5: 4 (peptide)
peptide: mBz-LLCWIGSSKNPYILCG-NH2
modifications: thioether N-15
SMILES: CC[C@H](C)[C@@H]1NC(=O)[C@H](Cc2c[nH]c3ccccc23)NC(=O)[C@H](CS)NC(=O)[C@H](CC(C)C)NC(=O)[C@H](CC(C)C)NC(=O)c2cccc(c2)CSC[C@@H](C(=O)NCC(N)=O)NC(=O)[C@H](CC(C)C)NC(=O)[C@H]([C@@H](C)CC)NC(=O)[C@H](Cc2ccc(O)cc2)NC(=O)[C@@H]2CCCN2C(=O)[C@H](CC(N)=O)NC(=O)[C@H](CCCCN)NC(=O)[C@H](CO)NC(=O)[C@H](CO)NC(=O)CNC1=O
notes: also called CP1-I3C; cyclic peptide 4
B6: 7 (peptide)
peptide: mBz-LLIWICSSKNPYILCG-NH2
modifications: thioether N-15
SMILES: CC[C@H](C)[C@@H]1NC(=O)[C@H](Cc2c[nH]c3ccccc23)NC(=O)[C@H]([C@@H](C)CC)NC(=O)[C@H](CC(C)C)NC(=O)[C@H](CC(C)C)NC(=O)c2cccc(c2)CSC[C@@H](C(=O)NCC(N)=O)NC(=O)[C@H](CC(C)C)NC(=O)[C@H]([C@@H](C)CC)NC(=O)[C@H](Cc2ccc(O)cc2)NC(=O)[C@@H]2CCCN2C(=O)[C@H](CC(N)=O)NC(=O)[C@H](CCCCN)NC(=O)[C@H](CO)NC(=O)[C@H](CO)NC(=O)[C@H](CS)NC1=O
notes: also called CP1-G6C; cyclic peptide 7

The binders below were run against T1, biotinylated-Lys63 linked Di-Ub (UniProt P0CG47 1-76, isopeptide bond between the C-terminal Gly of the distal Ub and Lys63 of the proximal Ub; biotin tag at the N-terminus of the distal Ub) (assay: fluorescence-based competitive assay: unlabeled peptide, 5.0 molar equiv., pre-bound to biotinylated Lys63-linked Di-Ub on a streptavidin plate, then competed with CP1-FITC (1 equiv.); signal change relative to 1 (CP1), Y=[1-(a/b)]x100).
T1 construct: mature; Immobilised on streptavidin plates or on the SPR CAPture chip; also called K63-linked Di-Ub; biotin-Lys63 linked Di-Ub
Experimental: Streptavidin-coated microplate (96 well plate) was washed with HEPES buffer (50 Mm HEPES, 150 Mm NaCl, pH 7.30) and then in each well incubated 1 μg of biotinylated-Lys63-linked Di-Ub in 100 μl of the same buffer at RT. for 30 min. Additional wells were kept without biotinylated-Lys63-Di-Ub for blank subtraction. After the washing step, peptide standard (CP1) and unlabeled peptides were incubated (5.0 molar equivalent relative to biotin-Lys63-linked Di-Ub) at RT for 30 minutes for saturation binding to the target. Then 1 molar equivalent of FITC labeled peptide-standard (CP1-FITC) relative to biotinylated-Lys63-linked Di-Ub was incubated to compete with unlabeled peptides at RT for 30 min. After releasing bounded peptides on treatment with 6 M Guanidinium chloride (Gnd·HCl), the fluorescence values were measured (λex=480 nm and λem=525 nm). These values were normalized and then calculated the relative change in binding with the following formula:
Y=[1−(a/b)]×100 [0289] Where Y=Signal change relative to the standard (CP1) (in terms of %). [0290] a=Measured signal value of each peptide candidate (in Relative Fluorescence Units). [0291] b=Measured signal value of standard peptide (CP1). The dissociation constant (KD) of fluorescein-labeled peptide (CP1-FITC) was calculated in accordance with the literature procedure (Vamisetti G B et al., 2021).

Binding result, binds:
B1
B2
B3
B4
B5
B6
